B1: d-lys6-GnRH-GMBS-plant-derived mature PAP (protein)
chain: VNTIIYNVGSTTISKYATFLNDLRNEAKDPSLKCYGIPMLPNTNTNPKYVLVELQGSNKKTITLMLRRNNLYVMGYSDPFETNKCRYHIFNDISGTERQDVETTLCPNANSRVSKNINFDSRYPTLESKAGVKSRSQVQLGIQILDSNIGKISGVMSFTEKTEAEFLLVAIQMVSEAARFKYIENQVKTNFNRAFNPNPKVLNLQETWGKISTAIHDAKNGVLPKPLELVDASGAKWIVLRVDEIKPDVALLNYVGGSCQTT
peptide: EHWSYKLRP
modifications: Hp-Glu at position 1 (blocked N-terminus); D-Lys at position 6, carrying the GMBS linker; C-terminal ethyl-amide (Et-NH2) replacing Gly 10; bound through the GMBS linker to d-lys6-GnRH; site of attachment not stated

What was measured:
[1] = molecular target: gonadotropin releasing hormone receptor; assay: competitive radio-immuno receptor binding assay, pituitary membranes, displacement of I125-d-Lys6-GnRH
[2] = molecular target: gonadotropin releasing hormone receptor; assay: competition with I125-d-Lys6-GnRH on pituitary membranes; competitor at 176.47 nM
[3] = molecular target: gonadotropin releasing hormone receptor; assay: competition with I125-d-Lys6-GnRH on pituitary membranes; competitor at 70.59 nM
[4] = molecular target: gonadotropin releasing hormone receptor; assay: competition with I125-d-Lys6-GnRH on pituitary membranes; competitor at 441.18 nM
[5] = molecular target: gonadotropin releasing hormone receptor; assay: competition with I125-d-Lys6-GnRH on pituitary membranes; competitor at 28.24 nM
[6] = molecular target: gonadotropin releasing hormone receptor; assay: competition with I125-d-Lys6-GnRH on pituitary membranes; competitor at 1102.94 nM
[7] = molecular target: gonadotropin releasing hormone receptor; assay: competition with I125-d-Lys6-GnRH on pituitary membranes; competitor at 1136.36 nM
[8] = molecular target: gonadotropin releasing hormone receptor; assay: competition with I125-d-Lys6-GnRH on pituitary membranes; competitor at 181.82 nM
[9] = molecular target: gonadotropin releasing hormone receptor; assay: competition with I125-d-Lys6-GnRH on pituitary membranes; competitor at 29.09 nM
[10] = molecular target: gonadotropin releasing hormone receptor; assay: competition with I125-d-Lys6-GnRH on pituitary membranes; competitor at 72.73 nM
[11] = molecular target: gonadotropin releasing hormone receptor; assay: competition with I125-d-Lys6-GnRH on pituitary membranes; competitor at 454.55 nM
[12] = molecular target: gonadotropin releasing hormone receptor; assay: competition with I125-d-Lys6-GnRH on pituitary membranes; competitor at 1250 nM
[13] = molecular target: gonadotropin releasing hormone receptor; assay: competition with I125-d-Lys6-GnRH on pituitary membranes; competitor at 200 nM
[14] = molecular target: gonadotropin releasing hormone receptor; assay: competition with I125-d-Lys6-GnRH on pituitary membranes; competitor at 80 nM
[15] = molecular target: gonadotropin releasing hormone receptor; assay: competition with I125-d-Lys6-GnRH on pituitary membranes; competitor at 32 nM
[16] = molecular target: gonadotropin releasing hormone receptor; assay: competition with I125-d-Lys6-GnRH on pituitary membranes; competitor at 500 nM

Row | Molecule | IC50 [1] [nM] | read-out of the competitive receptor binding assay (unit not given) [2] | read-out of the competitive receptor binding assay (unit not given) [3] | read-out of the competitive receptor binding assay (unit not given) [4] | read-out of the competitive receptor binding assay (unit not given) [5] | read-out of the competitive receptor binding assay (unit not given) [6] | read-out of the competitive receptor binding assay (unit not given) [7] | read-out of the competitive receptor binding assay (unit not given) [8] | read-out of the competitive receptor binding assay (unit not given) [9] | read-out of the competitive receptor binding assay (unit not given) [10] | read-out of the competitive receptor binding assay (unit not given) [11] | read-out of the competitive receptor binding assay (unit not given) [12] | read-out of the competitive receptor binding assay (unit not given) [13] | read-out of the competitive receptor binding assay (unit not given) [14] | read-out of the competitive receptor binding assay (unit not given) [15] | read-out of the competitive receptor binding assay (unit not given) [16]
1 | d-lys6-GnRH-GMBS-rPAP (from UniProt P10297 23-285) | 70 to 200 | 49.4 | 78.2 | 34 | 75 | 9.24 |  |  |  |  |  |  |  |  |  | 
2 | non-conjugated recombinant PAP (not bound to d-lys6-GnRH-GMBS) (from UniProt P10297 23-285) |  |  |  |  |  |  | 74.8 | 96.4 | 91.5 | 111 | 98.7 |  |  |  |  | 
3 | B1 | 70 to 200 |  |  |  |  |  |  |  |  |  |  | 0 | 10.1 | 37.5 | 65.5 | 3.38
